B1: Killer cell immunoglobulin-like receptor 2DL3 (Homo sapiens), P43628 (parent)
chain: MSLMVVSMVCVGFFLLQGAWPHEGVHRKPSLLAHPGPLVKSEETVILQCWSDVRFQHFLLHREGKFKDTLHLIGEHHDGVSKANFSIGPMMQDLAGTYRCYGSVTHSPYQLSAPSDPLDIVITGLYEKPSLSAQPGPTVLAGESVTLSCSSRSSYDMYHLSREGEAHERRFSAGPKVNGTFQADFPLGPATHGGTYRCFGSFRDSPYEWSNSSDPLLVSVTGNPSNSWPSPTEPSSETGNPRHLHVLIGTSVVIILFILLLFFLLHRWCCNKKNAVVMDQEPAGNRTVNREDSDEQDPQEVTYAQLNHCVFTQRKITRPSQRPKTPPTDIIVYTELPNAEP
B2: Killer cell immunoglobulin-like receptor 2DS4 (Homo sapiens), P43632 (parent)
chain: MSLMVIIMACVGFFLLQGAWPQEGVHRKPSFLALPGHLVKSEETVILQCWSDVMFEHFLLHREGKFNNTLHLIGEHHDGVSKANFSIGPMMPVLAGTYRCYGSVPHSPYQLSAPSDPLDMVIIGLYEKPSLSAQPGPTVQAGENVTLSCSSRSSYDMYHLSREGEAHERRLPAVRSINGTFQADFPLGPATHGGTYRCFGSFRDAPYEWSNSSDPLLVSVTGNPSNSWPSPTEPSSKTGNPRHLHVLIGTSVVKIPFTILLFFLLHRWCSDKKNAAVMDQEPAGNRTVNSEDSDEQDHQEVSYA
B3: Killer cell immunoglobulin-like receptor 2DL1 (Homo sapiens), P43626 (parent)
chain: MSLLVVSMACVGFFLLQGAWPHEGVHRKPSLLAHPGRLVKSEETVILQCWSDVMFEHFLLHREGMFNDTLRLIGEHHDGVSKANFSISRMTQDLAGTYRCYGSVTHSPYQVSAPSDPLDIVIIGLYEKPSLSAQLGPTVLAGENVTLSCSSRSSYDMYHLSREGEAHERRLPAGPKVNGTFQADFPLGPATHGGTYRCFGSFHDSPYEWSKSSDPLLVSVTGNPSNSWPSPTEPSSKTGNPRHLHILIGTSVVIILFILLFFLLHRWCSNKKNAAVMDQESAGNRTANSEDSDEQDPQEVTYTQLNHCVFTQRKITRPSQRPKTPPTDIIVYTELPNAESRSKVVSCP

This is an account of results in IntAct's records for PubMed 19858347.

In the first assay the parent is B1. The settings on record: with hlac_human HLA-C.
Target sequence in this assay (P10321 whole entry): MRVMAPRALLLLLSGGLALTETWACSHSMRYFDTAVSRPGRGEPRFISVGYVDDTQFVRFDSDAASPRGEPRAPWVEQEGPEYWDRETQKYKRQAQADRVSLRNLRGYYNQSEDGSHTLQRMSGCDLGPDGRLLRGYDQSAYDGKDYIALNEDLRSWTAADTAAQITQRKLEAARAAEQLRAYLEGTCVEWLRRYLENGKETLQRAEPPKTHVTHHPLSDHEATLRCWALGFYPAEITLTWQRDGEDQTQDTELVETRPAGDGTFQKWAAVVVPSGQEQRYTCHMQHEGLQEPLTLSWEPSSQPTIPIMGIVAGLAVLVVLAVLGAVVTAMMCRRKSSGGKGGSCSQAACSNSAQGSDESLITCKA
Regarding Q92P;D93V;T105P, the “effect of a mutation on the interaction” value is reported as “decreasing interaction strength”.

In the case of T105P, the “effect of a mutation on the interaction” value is “decreasing interaction strength”.

In the case of Q92P;D93V, the “effect of a mutation on the interaction” value is listed as “decreasing interaction strength”.

Turning to Q92P, the “effect of a mutation on the interaction” value was “increasing interaction strength”.

The variants in a further assay derive from B1. The note with it: with hlac_human HLA-C. The source holds these as a separate data set.
Target sequence in this assay (P10321 whole entry): as above
With Q92P;D93V;T105P, the “effect of a mutation on the interaction” value is reported as “disrupting interaction strength”.

T105P: the “effect of a mutation on the interaction” value is recorded as “disrupting interaction strength”.

As to Q92P;D93V, the “effect of a mutation on the interaction” value is on record as “disrupting interaction strength”.

In the next assay the parent is B1. The settings on record: with hlab_human HLA-B.
Target sequence in this assay (P01889 whole entry): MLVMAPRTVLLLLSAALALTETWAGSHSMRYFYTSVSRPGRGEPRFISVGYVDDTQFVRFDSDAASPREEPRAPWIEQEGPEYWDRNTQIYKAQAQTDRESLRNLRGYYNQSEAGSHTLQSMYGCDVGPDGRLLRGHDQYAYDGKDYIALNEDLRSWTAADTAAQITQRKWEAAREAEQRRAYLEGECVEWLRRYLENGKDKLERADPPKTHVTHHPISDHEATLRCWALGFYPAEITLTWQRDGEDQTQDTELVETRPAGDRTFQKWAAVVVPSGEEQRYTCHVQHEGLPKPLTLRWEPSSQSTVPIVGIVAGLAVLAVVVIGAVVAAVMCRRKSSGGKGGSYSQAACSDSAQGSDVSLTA
Turning to Q92P, the “effect of a mutation on the interaction” value is on record as “decreasing interaction strength”.

The variants in a further assay derive from B2. The settings on record: with hlac_human HLA-C.
Target sequence in this assay (P10321 whole entry): as the sequence (P10321 whole entry) above
For the variant I123T, the “effect of a mutation on the interaction” value was “decreasing interaction strength”.

For the variant P92Q;V93D, the “effect of a mutation on the interaction” value was “decreasing interaction strength”.

For the variant K65M, the “effect of a mutation on the interaction” value is on record as “decreasing interaction strength”.

Consider A205S, for which the “effect of a mutation on the interaction” value was “decreasing interaction strength”.

In a further assay the parent is B2. The note with it: with hlac_human HLA-C. This is another data set of the same source.
Target sequence in this assay (P10321 whole entry): as above
P92Q;V93D: the “effect of a mutation on the interaction” value is “with no effect”.

As for K65M, the “effect of a mutation on the interaction” value was “disrupting interaction strength”.

Turning to A205S, the “effect of a mutation on the interaction” value was “with no effect”.

Variants of B2 are the subject of another assay. The note with it: with hlac_human HLA-C. The source holds these as a separate data set.
Target sequence in this assay (P10321 whole entry): as above
As to P92Q;V93D, the “effect of a mutation on the interaction” value is reported as “increasing interaction strength”.

Take K65M: the “effect of a mutation on the interaction” value was “causing an interaction”.

The variants in another assay derive from B2. The note with it: with hlab_human HLA-B.
Target sequence in this assay (P01889 whole entry): as the sequence (P01889 whole entry) above
As for P92Q;V93D, the “effect of a mutation on the interaction” value is “causing an interaction”.

A205S: the “effect of a mutation on the interaction” value was “causing an interaction”.

The variants in the next assay derive from B2. The settings on record: with hlac_human HLA-C. The source holds these as a separate data set.
Target sequence in this assay (P10321 whole entry): as the sequence (P10321 whole entry) above
P92Q;V93D: the “effect of a mutation on the interaction” value is listed as “causing an interaction”.

Regarding A205S, the “effect of a mutation on the interaction” value is reported as “causing an interaction”.

In the next assay the parent is B2. The settings on record: with hlac_human HLA-C. The source holds these as a separate data set.
For K65M, the “effect of a mutation on the interaction” value is on record as “with no effect”.

Variants of B3 are the subject of the next assay. The note with it: with hlac_human HLA-C.
As for Q92P, the “effect of a mutation on the interaction” value is recorded as “increasing interaction strength”.

Turning to T105P, the “effect of a mutation on the interaction” value is recorded as “decreasing interaction strength”.

As for Q92P;D93V, the “effect of a mutation on the interaction” value is “decreasing interaction strength”.

Q92P;D93V;T105P: the “effect of a mutation on the interaction” value is “decreasing interaction strength”.

In the next assay the parent is B3. The settings on record: with hlac_human HLA-C. The source holds these as a separate data set.
Take Q92P: the “effect of a mutation on the interaction” value is listed as “decreasing interaction strength”.
